Measured values: patent US20150337336A1 (PHYTOGENE, published 2015)

Biological target: the molecule itself
Assay: X-ray crystal structure at 2.15 Å, space group C2, 3 chains per asymmetric unit; homodimer seen in the crystal
Experimental: Crystals of mutant cinnamic acid decarboxylase FDC (K190E) in complex with 3-hydroxyl cinnamic acid were grown by the vapor diffusion method. Commercial screening Kit (Hampton research, Qiagen, Emerald Biosystems) was used for screening crystallization conditions. Different volume ratio of protein and reservoir were tested for crystallization. Hanging drops containing a 1:1, 1:2, or 2:1 mixture of protein (5-10 mg/ml) and crystallization buffer (10% (w/v) polyethylene glycol (PEG) 6000, 5% (w/v) 2-methyl-2,4-pantanediol (MPD), 0.1 M HEPES, pH 7.5, and 2 mM DTT) were maintained at 4° C. In particular, well diffracted crystals were grown in 7-11% (w/v) polyethylene glycol (PEG) 6000, 3% (w/v) 2-methyl-2,4-pantanediol (MPD), pH 6.5-7.5, and 2 mM DTT with 0.1% 3-hydroxyl cinnamic acid. Crystal conditions were further improved by adding 0.01M MnCl2, 0.5% (w/v) polyvinylpyrrolidone K15, 0.2M NDSB-201 or 2% (w/v) benzamidine hydrochloride as an additive.
The FDC(K190E) crystals grew in space group C2 with 3 chains per asymmetric unit. Unit cell dimensions for the crystal were a=249.51 Å, b=120.67 Å, c=158.49 Å, β=94.9°; Diffraction data were collected from single crystals mounted in a cryoloop and flash frozen in a nitrogen stream at 100 K and reduced with the HKL suite. Crystals were diffracted at 2.15 Å resolution. […]

B1: mutant cinnamic acid decarboxylase FDC (K190E) (enzyme)
chain: MRKLNPALEFRDFIQVLKDEDDLIEITEEIDPNLEVGAIMRKAYESHLPAPLFKNLKGASKDLFSILGCPAGLRSKEKGDHGRIAHHLGLDPKTTIKEIIDYLLECKEKEPLPPITVPVSSAPCKTHILSEEKIHLQSLPTPYLHVSDGGKYLQTYGMWILQTPDKKWTNWSIARGMVVDDKHITGLVIEPQHIRQIADSWAAIGKANEIPFALCFGVPPAAILVSSMPIPEGVSESDYVGAILGESVPVVKCETNDLMVPATSEMVFEGTLSLTDTHLEGPFGEMHGYVFKSQGHPCPLYTVKAMSYRDNAILPVSNPGLCTDETHTLIGSLVATEAKELAIESGLPILDAFMPYEAQALWLILKVDLKGLQALKTTPEEFCKKVGDIYFRTKVGFIVHEIILVADDIDIFNFKEVIWAYVTRHTPVADQMAFDDVTSFPLAPFVSQSSRSKTMKGGKCVTNCIFRQQYERSFDYITCNFEKGYPKGLVDKVNENWKRYGYK
notes: It was purified by the same process as FDC1: an N-terminal 6-His/SUMO tag was cleaved off by hydrolase; It was crystallised in complex with the small molecule 3-hydroxyl cinnamic acid; also called FDC1 K190E mutant; FDC mutant (K190E)
Question: Does B1 bind?
Answer: Result: binds
